The numbers were not newly measured in paper PMC11631806, which cites them from elsewhere.

The data set deals with Cys32 (UniProt position 32, FSATWCGPCKM). The following applies: not stated (reduced dithiol form implied by thiol titration).

“Thioredoxin (cytosolic Trx, Trx1) (Homo sapiens (inferred; the article does not name the species for these values))”: the pKa (usually the negative logarithm of the acid dissociation constant) is recorded as 6.3 ± 0.1.
